Results: PMC6706469

Tests used:
[1] = biological target: P34 (trypanosome-specific protein), endogenous (Trypanosoma brucei (endogenous in T. brucei cells)); assay: co-IP; whole-cell extract of 3×Ty-TbL11 T. brucei cells, without RNase A; beads with antibody to the target (anti-P34/P37, anti-TbL5 or anti-TbRpf2); anti-Ty Western blot of pellet and supernatant; amount in the pellet relative to pellet plus supernatant
[2] = biological target: P37 (trypanosome-specific protein), endogenous (Trypanosoma brucei (endogenous in T. brucei cells)); assay: as above
[3] = biological target: TbRpf2 (Trypanosoma brucei homologue of Rpf2), endogenous (Trypanosoma brucei (endogenous in T. brucei cells)); assay: as above
[4] = biological target: TbL5 (Trypanosoma brucei ribosomal protein L5), endogenous (Trypanosoma brucei (endogenous in T. brucei cells)); assay: as above
[5] = biological target: P34 (trypanosome-specific protein), endogenous (Trypanosoma brucei (endogenous in T. brucei cells)); assay: co-IP; whole-cell extract of 3×Ty-TbL11 T. brucei cells, with RNase A added to digest cellular RNA; beads with antibody to the target (anti-P34/P37, anti-TbL5 or anti-TbRpf2); anti-Ty Western blot of pellet and supernatant; amount in the pellet relative to pellet plus supernatant
[6] = biological target: P37 (trypanosome-specific protein), endogenous (Trypanosoma brucei (endogenous in T. brucei cells)); assay: as above
[7] = biological target: TbRpf2 (Trypanosoma brucei homologue of Rpf2), endogenous (Trypanosoma brucei (endogenous in T. brucei cells)); assay: as above
[8] = biological target: TbL5 (Trypanosoma brucei ribosomal protein L5), endogenous (Trypanosoma brucei (endogenous in T. brucei cells)); assay: as above
[9] = biological target: Recombinant P34 (Trypanosoma brucei); assay: co-IP; in vitro, recombinant TbL11 incubated with the recombinant target, with in vitro-transcribed 5S rRNA added; precipitated with antibody to the target; anti-His Western blot; amount in the pellet relative to pellet plus supernatant
[10] = biological target: Recombinant TbRpf2 (Trypanosoma brucei); assay: as above
[11] = biological target: Recombinant TbL5 (Trypanosoma brucei); assay: as above
[12] = biological target: Recombinant P34 (Trypanosoma brucei); assay: co-IP; in vitro, recombinant TbL11 incubated with the recombinant target, without 5S rRNA; precipitated with antibody to the target; anti-His Western blot; amount in the pellet relative to pellet plus supernatant
[13] = biological target: Recombinant TbRpf2 (Trypanosoma brucei); assay: as above
[14] = biological target: Recombinant TbL5 (Trypanosoma brucei); assay: as above

| fraction in the pellet (pellet relative to pellet plus supernatant) [1] | fraction in the pellet (pellet relative to pellet plus supernatant) [2] | fraction in the pellet (pellet relative to pellet plus supernatant) [3] | fraction in the pellet (pellet relative to pellet plus supernatant) [4] | fraction in the pellet (pellet relative to pellet plus supernatant) [5] | fraction in the pellet (pellet relative to pellet plus supernatant) [6] | fraction in the pellet (pellet relative to pellet plus supernatant) [7] | fraction in the pellet (pellet relative to pellet plus supernatant) [8] | fraction in the pellet (pellet relative to pellet plus supernatant) [9] | fraction in the pellet (pellet relative to pellet plus supernatant) [10] | fraction in the pellet (pellet relative to pellet plus supernatant) [11] | fraction in the pellet (pellet relative to pellet plus supernatant) [12] | fraction in the pellet (pellet relative to pellet plus supernatant) [13] | fraction in the pellet (pellet relative to pellet plus supernatant) [14] | Substance |
| --- | --- | --- | --- | --- | --- | --- | --- | --- | --- | --- | --- | --- | --- | --- |
| 0.16 | 0.16 | 0.07 | 0.53 | 0.53 | 0.53 | 0.58 | 0.67 |  |  |  |  |  |  | 3×Ty-TbL11 (Ty-tagged Trypanosoma brucei ribosomal protein L11) (natural protein) |
|  |  |  |  |  |  |  |  | 0.85 | 0.83 | 0.9 | 0.96 | 0.86 | 0.92 | Recombinant TbL11 (Trypanosoma brucei ribosomal protein L11) (natural protein) |
